Reference: patent publication US20170029530A1 (AbbVie / Abbott, published 2017)
Where “and” joins values, the source holds several entries; their conditions need not be identical. Equal values may be shown once.

T1: mDPEP3 (limits assumed)
T1 construct: also called mouse DPEP3-His; mouse DPEP3 ECD with histidine tag
T1 single chain: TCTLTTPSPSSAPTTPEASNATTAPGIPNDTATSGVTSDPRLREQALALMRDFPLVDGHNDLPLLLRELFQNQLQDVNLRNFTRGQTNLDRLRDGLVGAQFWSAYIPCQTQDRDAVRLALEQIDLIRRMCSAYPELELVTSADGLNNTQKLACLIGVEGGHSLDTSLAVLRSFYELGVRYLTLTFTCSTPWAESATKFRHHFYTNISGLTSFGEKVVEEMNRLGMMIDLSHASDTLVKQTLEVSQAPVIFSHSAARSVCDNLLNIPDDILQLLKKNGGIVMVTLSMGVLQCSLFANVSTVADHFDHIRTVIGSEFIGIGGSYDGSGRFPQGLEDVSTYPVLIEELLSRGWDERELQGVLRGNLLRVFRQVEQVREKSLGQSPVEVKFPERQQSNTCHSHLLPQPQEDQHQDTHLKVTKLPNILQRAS

T2: rat DPEP3 ECD with histidine tag (rat, UniProt Q5U2X4 36-459, limits assumed)
T2 construct: also called rDPEP3-His; ratDPEP3-His; not shown: histidine tag
T2 sequence: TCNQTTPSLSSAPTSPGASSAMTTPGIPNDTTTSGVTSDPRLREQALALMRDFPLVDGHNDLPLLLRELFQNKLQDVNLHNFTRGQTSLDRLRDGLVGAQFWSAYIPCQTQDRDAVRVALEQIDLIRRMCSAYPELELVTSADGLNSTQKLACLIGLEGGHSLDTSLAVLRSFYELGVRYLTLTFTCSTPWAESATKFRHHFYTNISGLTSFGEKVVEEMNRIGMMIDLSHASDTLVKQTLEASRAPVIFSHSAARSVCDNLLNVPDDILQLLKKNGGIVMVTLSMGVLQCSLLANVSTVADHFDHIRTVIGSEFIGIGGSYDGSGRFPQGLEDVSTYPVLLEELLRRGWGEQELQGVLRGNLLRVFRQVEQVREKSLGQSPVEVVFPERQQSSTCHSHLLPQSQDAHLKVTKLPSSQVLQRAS

T3: hDPEP3-ECD-His (human, UniProt Q9H4B8 36-463)
T3 construct: also called hDPEP3-His; monomeric hDPEP3-His antigen; not shown: histidine tag
T3 sequence: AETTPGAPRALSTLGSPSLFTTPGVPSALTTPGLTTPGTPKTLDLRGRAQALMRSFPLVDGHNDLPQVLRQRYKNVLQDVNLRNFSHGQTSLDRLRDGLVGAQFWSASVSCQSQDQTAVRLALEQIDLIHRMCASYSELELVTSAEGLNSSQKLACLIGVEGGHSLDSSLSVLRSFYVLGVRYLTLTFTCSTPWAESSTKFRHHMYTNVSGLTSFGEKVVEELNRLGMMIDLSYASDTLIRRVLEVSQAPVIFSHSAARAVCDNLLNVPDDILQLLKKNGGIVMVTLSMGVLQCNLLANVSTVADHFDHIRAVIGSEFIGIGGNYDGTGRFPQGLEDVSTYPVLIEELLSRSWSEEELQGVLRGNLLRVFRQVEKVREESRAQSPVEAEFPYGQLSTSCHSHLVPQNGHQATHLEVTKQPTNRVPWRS


How the values were obtained:
mDPEP3 = biological target: T1, mDPEP3; test: ELISA, coated antigen
Procedure: (§1) The anti-DPEP3 antibodies were screened by ELISA for cross-reactivity with mouse, rat and cynomolgus DPEP3 and for cross reactivity to hDPEP2, the closest DPEP3 family member. ELISA was conducted as follows. Plates were coated with purified mouse, rat or cynomolgus DPEP3-His or hDPEP2-His at 0.3 μg/mL in 0.2 M carbonate-bicarbonate buffer, pH 9.4 overnight at 4° C. The protein solution was removed and the wells were blocked with 1% (w/v) BSA in PBS (PBSA), 100 μL/well for 1 hour at 37° C. Anti-DPEP3 antibody or a mouse isotype control antibody was then added at 1 μg/mL in 50 μL PBSA for 1 hour at room temperature. After washing with water, 50 μL/well HRP-labeled goat anti-mouse IgG antibody diluted 1:10,000 in PBSA was added for 30 min at room temperature. The plates were washed and developed by the addition of 40 μL/well of the TMB substrate solution (Thermo Scientific) at room temperature. An equal volume of 0.2 M H₂SO₄ was added to stop substrate development. The samples were then analyzed by spectrophotometer at OD 450. […] The cross reactivity results for exemplary DPEP3-specific antibodies can be seen in FIG. 4.

[1] = biological target: T2, rat DPEP3 ECD with histidine tag; test: ELISA, coated antigen
Procedure: as §1

[2] = biological target: T4, hDPEP2 ECD with histidine tag (human, UniProt Q9H4A9 33-463); test: ELISA, coated antigen
T4 construct: also called hDPEP2-His; not shown: histidine tag
T4 sequence (Q9H4A9 33-463): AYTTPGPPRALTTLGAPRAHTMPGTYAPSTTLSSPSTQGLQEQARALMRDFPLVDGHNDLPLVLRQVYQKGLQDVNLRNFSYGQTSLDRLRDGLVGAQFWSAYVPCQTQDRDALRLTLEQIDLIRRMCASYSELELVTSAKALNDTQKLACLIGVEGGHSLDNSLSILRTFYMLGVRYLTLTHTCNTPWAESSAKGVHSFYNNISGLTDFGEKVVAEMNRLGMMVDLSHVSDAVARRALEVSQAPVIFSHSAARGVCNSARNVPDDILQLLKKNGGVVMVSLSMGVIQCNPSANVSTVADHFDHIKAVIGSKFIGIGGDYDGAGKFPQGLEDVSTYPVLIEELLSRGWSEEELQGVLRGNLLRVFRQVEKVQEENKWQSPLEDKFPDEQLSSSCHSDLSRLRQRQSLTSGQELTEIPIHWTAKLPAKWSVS
Procedure: as §1

hDPEP3-ECD-His = biological target: T3, hDPEP3-ECD-His; test: BLI ForteBio RED, 200 nM hDPEP3-His, estimated grade
Procedure: The affinity of the antibodies for hDPEP3-His was qualitatively determined from kinetics curves generated with a ForteBio RED as follows. Anti-DPEP3 antibodies were immobilized onto anti-mouse Fc capture biosensors with a contact time of 3 mins. and a flow rate of 1000 rpm. The captured antibody loading from baseline was constant at 0.3-1 units. Following antibody capture and 30 second baseline, the biosensors were dipped into a 200 nM solution of hDPEP3-His for a 4 min. association phase followed by a 3 min. dissociation phase at a shaking rate of 1000 rpm. The biosensors were regenerated by dipping into 10 mM glycine, pH 1.7 following each cycle. The data was processed by subtracting a control mouse IgG surface response from the specific antibody response and data was truncated to the association and dissociation phase. The association and dissociation curves were used to qualitatively estimate the affinities of selected antibodies. […] A designation of “ND” means that the estimated KD was not determined.

Row | Binder | binding result (mDPEP3) | binding result [1] | binding result [2] | Kd (hDPEP3-ECD-His)
1 | SC34.63 (antibody, mouse IgG1) light chain: DIVMSQSPSSLAVSVGEKVTMSCKSSQSLLYSKYQKNYLAWYQQKPGQSPKLLIYWASTRESGVPDRFTGSESGTDFTLTISSVKAEDLAVYYCQQYYRYPLTVGAGTKLELK heavy chain: QVQLQQSGVELARPGASVKLSCKASGYTFTSYGIDWVKQRTGQGLEWIGETYPGRGDTYYNENFKGKATLTTDKSSSTAFLQLSSLTSEDSAVYFCARVHDYGSWFPYWGQGTLVTVSA | no binding (tested: 1 ug/mL) | no binding (tested: 1 ug/mL) | no binding (tested: 1 ug/mL) | < 5 nM
2 | SC34.67 (antibody, mouse IgG2a, V domains shown) VH: QVQLQQSGAELARPGASVRLSCKASGYTFTSYGINWVKQRTGQGLEWIGEIYPGSGDSYYNKTFKGKAILTTDKSSSTAYMQLSSLTPEDSAVYFCARVHDYGSWFPYWGPGALVTVSA VL: DMVMSQSPSSLAVSVGEKVALSCKSSQSLLHSRDQKNYLAWYQQKPGQSPKLLIHWASTRESGVPARFTGSGSGTDFTLTISSVKAEDLAVYYCQQSYRYPLTFGAGTKLELK | no binding (tested: 1 ug/mL) | no binding (tested: 1 ug/mL) | no binding (tested: 1 ug/mL) | < 5 nM
3 | SC34.76 (antibody, mouse IgG1, V domains shown) VH: QVQLQQSGAELARPGASVKLSCKTSEYTFTSYAINWVKQRTGQGLEWIGEVYPGSGNTYYNEKFKGKAILTTDKSSSTGYMQLSNLTSEDSAVYFCARVHDYGSWFPYWGQGTLVTVSA VL: DIVMSQSPSSLAVSVGERVTMNCKSSQSLFYSRYQKNYLAWYQQKPGQSPKLLIYWASTRESGVPDRFTGSGSGTDFTLTISSVKAEDLAVYYCQQYYRYPLTFGAGTKLELK | no binding (tested: 1 ug/mL) | no binding (tested: 1 ug/mL) | no binding (tested: 1 ug/mL) | < 5 nM
4 | SC34.7 (antibody, mouse IgG1, V domains shown, also called SC34.07) VH: QVQVQQSGAELARPGASVKLSCKASGYTFTSYGINWVKQRTGQGLEWIGEIYPGSGNAYYNEKFKVKAKLTTDNSSRTAYMQLINLTSEDSAVYFCARVHDYGSWFPYWGQGTLVTVSA VL: DIVMSQSPSSLAVSVGEKVTMSCKSSQSLLYSRYQKNYLAWYQQKPGQSPKLLIYWASTRESGVPDRFTGSGSGTDFTLTISSVKAEDLAVYYCHQYYRYPLTFGAGTKLELK | no binding (tested: 1 ug/mL) | no binding (tested: 1 ug/mL) | no binding (tested: 1 ug/mL) | ≥ 5 nM and ≤ 10 nM
5 | SC34.83 (antibody, mouse IgG2a, V domains shown) VH: QVQLQQSGAELVKPGASVKISCKASGYAFSHSWMNWVKQRPGKGLEWIGRIYPGDGDINYNGKFKGKATLTADKSSSTAYMQLSSLTSEDSAVYFCARRGPSYNNYCFDYWGQGTTLTVSS VL: QIVLIQSPAIMSASPGENVTMTCSASSSVSYMHWYQQKSGTSPKRWIYDTSKLASGVPARFSGSGSGTSYSLTISSMEAEDAATYYCQQWNSYPPTFGAGTKLELK | – | – | no binding (tested: 1 ug/mL) | > 10 nM
6 | SC34.95 (antibody, mouse IgG1) light chain: DIVLSQSPSSLAVSVGEKVTMSCKSSQSLLNSRDRKNYLAWCQQKPGQSPKVMIYWASTRESGVPDRFTGSGSGTDFTLTISSVKAEDLAVYYCQQYYSYPLTVGAGTKLELK heavy chain: QVQVKQSGAELARPGASVKLSCKASGYTFTSYAINWLKQRTGQGLEWIGEIYPGSGNTYYNESFKNKATLTTDKSSTTAYMQLNSLTSEDSAVYFCARVHDYGSWFPYWGQGTLVTVSA | no binding (tested: 1 ug/mL) | – | no binding (tested: 1 ug/mL) | < 5 nM
7 | SC34.4 (antibody, mouse IgG2b, V domains shown, also called SC34.04) VH: QVQLQQSGAELARPGASVKLSCKASGYTFTSYGINWVKQRTGQGLEWIGEIYPGSGNIYYNEKFKGKAILTTDKSSNTAYMQLSSLTSEDSAVYFCARVHDYGSWFPYWAQGTLVTVSA VL: DIVMSQSPSSLTVSVGEKVTMSCKSSQSLLYSRNQKNYLAWYQQKPGQSPKLLIYWASTRDSGVPDRFTGTGSGTDFSLTISSVKTEDLAVYYCHQHYRYPLTFGAGTKLELK | no binding (tested: 1 ug/mL) | – | no binding (tested: 1 ug/mL) | ≥ 5 nM and ≤ 10 nM
